Patent US20080286752A1, “Methods for the production of HCV, assaying HCV entry, and screening drugs and cellular receptors for HCV” (priority 2005, published 2008)

Tests used:
[1] = biological target: T1, HCV E1 and E2 proteins (C22E1E2, genotype 1a) (Hepatitis C virus genotype 1a, UniProt P27958, H297R/K360A/N321D/N391S/R602W/V212I/Y589H); type: cell-based
T1 construct: residues 24-215 are E1, and residues 216-577 are E2; expressed in transfected cells; host or cells: 293T effector cells transfected with pcDNA3.1-HE1E2, co-cultured with Huh-7.5 target cells

HCV pseudoparticles = conditions: reports; cited from earlier work

Sequence	effect on HCV E1E2 mediated fusion ([1]; peptide added to cells for an hour before fusion, concentrations up to 10 mM)	inhibition of transduction with pseudoparticles (HCV pseudoparticles)	inhibition of HCV E1E2 mediated fusion ([1]; peptide added to cells at concentrations of 10 nM or above for an hour before fusion)
SAYQVRNSSGLYHVTNDC	little effect	does not	–
SSGLYHVTNDCPNSSIVY	–	inhibits	~40%
